From patent US20140186363A1 (UNIVERSITY OF ZURICH, published 2014)

What was measured:
[1] = target: T1, MAGEA4 (UniProt P43358 1-317, limits assumed); test: Western blot of recombinant protein, anti-human IgG-HRP
T1 construct: also called recombinant MAGEA4-protein; CT1.4
T1 sequence (looked up): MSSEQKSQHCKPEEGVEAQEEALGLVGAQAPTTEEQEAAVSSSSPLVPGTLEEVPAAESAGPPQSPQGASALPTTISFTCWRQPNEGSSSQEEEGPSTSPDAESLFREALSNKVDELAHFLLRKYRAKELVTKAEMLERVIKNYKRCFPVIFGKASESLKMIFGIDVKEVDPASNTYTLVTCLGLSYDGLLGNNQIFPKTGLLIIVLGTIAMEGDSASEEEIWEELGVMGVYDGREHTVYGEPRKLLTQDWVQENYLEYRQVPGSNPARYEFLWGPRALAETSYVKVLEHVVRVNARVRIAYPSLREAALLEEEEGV
Description: Recombinant MAGEA3- and recombinant MAGEA4-protein were separated in SDS-PAGE and blotted onto membranes. Membranes were incubated with human antibodies 122G3 or 32H2. Binding of human antibodies to proteins on the membrane was evaluated using an HRP-labeled goat anti human IgG (Jackson Immunoresearch, Milan Analytica AG, Rheinfelden, Switzerland). The results are depicted in FIG. 3.

[2] = target: T2, MAGEA3 (human, UniProt P43357 1-314); test: ELISA, plate coated with recombinant MAGEA3, serial dilution of antibody
T2 construct: also called recombinant MAGEA3; MAGEA3-protein

[3] = target: T3, MAGEA3 peptide no 7; test: ELISA on plate-coated 20mer peptide, antibody at 1 µg/ml, anti-human IgG Fc-HRP
T3 construct: also called MAGEA3 aa 61-80
T3 peptide: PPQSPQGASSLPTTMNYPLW
Description: (§1) 20mer peptides spanning the entire MAGEA3 protein with 10 aa overlaps shared by each adjacent peptide (Peptides&Elephants, Nuthetal, Germany) were used to coat Maxisorp ELISA plates (Nunc, Rochester, N.Y.). As control a 20mer peptide representing amino acids 40-21 from the NY-ESO-1 protein was used (rev). The numbering of amino acids of MAGEA3 is based on SEQ ID No:41.
(§2) Human recombinant antibody was used at a concentration of 1 μg/ml. Bound human antibody was detected using horseradish peroxidase-conjugated goat anti-human IgG Fc-gamma specific antibodies (Jackson ImmunoResearch, Europe Ltd., Cambridgeshire, UK).

[4] = target: T4, MAGEA3 peptide no 24; test: as above
T4 construct: also called MAGEA3 aa 231-250
T4 peptide: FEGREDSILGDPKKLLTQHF
Description: as §1, §2

[5] = target: T5, MAGEA3 peptide no 8; test: as above
T5 construct: also called MAGEA3 aa 71-90
T5 peptide: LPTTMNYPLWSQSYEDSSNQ
Description: as §1, §2

[6] = target: T6, MAGEA3 peptide no 15; test: peptide ELISA (coated 20mer)
T6 construct: also called MAGEA3 aa 141-160
T6 peptide: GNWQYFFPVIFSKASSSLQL
Description: as §1, §2

[7] = target: T7, MAGEA3 peptide no 25; test: peptide ELISA (coated 20mer)
T7 construct: also called MAGEA3 aa 241-260
T7 peptide: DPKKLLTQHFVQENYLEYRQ
Description: as §1, §2

[8] = target: T8, MAGEA3 peptide no 27; test: peptide ELISA (coated 20mer)
T8 construct: also called MAGEA3 aa 261-280
T8 peptide: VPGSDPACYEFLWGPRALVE
Description: as §1, §2

[9] = target: T9, MAGEA3 peptide no 9; test: peptide ELISA (coated 20mer)
T9 construct: also called MAGEA3 aa 81-100
T9 peptide: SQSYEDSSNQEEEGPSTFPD
Description: as §1, §2

[10] = target: T10, MAGEA3 peptide no 20; test: peptide ELISA (coated 20mer)
T10 construct: also called MAGEA3 aa 191-210
T10 peptide: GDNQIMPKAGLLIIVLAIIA
Description: as §1, §2

[11] = target: T11, MAGEA3 peptide no 21; test: peptide ELISA (coated 20mer)
T11 construct: also called MAGEA3 aa 201-220
T11 peptide: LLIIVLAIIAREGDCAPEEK
Description: as §1, §2

[12] = target: T12, MAGEA3 peptide no 1; test: peptide ELISA (coated 20mer)
T12 construct: also called MAGEA3 aa 1-20
T12 peptide: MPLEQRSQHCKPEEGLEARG
Description: as §1, §2

[13] = target: T13, MAGEA3 peptide no 22; test: peptide ELISA (coated 20mer)
T13 construct: also called MAGEA3 aa 211-230
T13 peptide: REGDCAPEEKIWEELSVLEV
Description: as §1, §2

[14] = target: T14, MAGEA3 peptide no 28; test: peptide ELISA (coated 20mer)
T14 construct: also called MAGEA3 aa 271-290
T14 peptide: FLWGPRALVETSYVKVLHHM
Description: as §1, §2

[15] = target: T15, MAGEA3 peptide no 30; test: peptide ELISA (coated 20mer)
T15 construct: also called MAGEA3 aa 291-310
T15 peptide: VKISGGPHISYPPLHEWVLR
Description: as §1, §2

[16] = target: T16, MAGEA3 peptide no 3; test: peptide ELISA (coated 20mer)
T16 construct: also called MAGEA3 aa 21-40
T16 peptide: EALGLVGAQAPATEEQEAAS
Description: as §1, §2

[17] = target: T17, MAGEA3 peptide no 6; test: peptide ELISA (coated 20mer)
T17 construct: also called MAGEA3 aa 51-70
T17 peptide: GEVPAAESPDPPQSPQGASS
Description: as §1, §2

[18] = target: T18, MAGEA3 peptide no 26; test: peptide ELISA (coated 20mer)
T18 construct: also called MAGEA3 aa 251-270
T18 peptide: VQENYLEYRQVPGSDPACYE
Description: as §1, §2

[19] = target: T19, MAGEA3 peptide no 12; test: peptide ELISA (coated 20mer)
T19 construct: also called MAGEA3 aa 111-130
T19 peptide: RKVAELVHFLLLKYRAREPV
Description: as §1, §2

[20] = target: T20, MAGEA3 peptide no 19; test: peptide ELISA (coated 20mer)
T20 construct: also called MAGEA3 aa 181-200
T20 peptide: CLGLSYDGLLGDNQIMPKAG
Description: as §1, §2

[21] = target: T21, MAGEA3 peptide no 10; test: peptide ELISA (coated 20mer)
T21 construct: also called MAGEA3 aa 91-110
T21 peptide: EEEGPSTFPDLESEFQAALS
Description: as §1, §2

[22] = target: T22, MAGEA3 peptide no 18; test: peptide ELISA (coated 20mer)
T22 construct: also called MAGEA3 aa 171-190
T22 peptide: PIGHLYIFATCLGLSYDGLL
Description: as §1, §2

[23] = target: T23, MAGEA3 peptide no 17; test: peptide ELISA (coated 20mer)
T23 construct: also called MAGEA3 aa 161-180
T23 peptide: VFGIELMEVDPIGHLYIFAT
Description: as §1, §2

[24] = target: T24, MAGEA3 peptide no 5; test: peptide ELISA (coated 20mer)
T24 construct: also called MAGEA3 aa 41-60
T24 peptide: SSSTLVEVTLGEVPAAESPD
Description: as §1, §2

[25] = target: T25, MAGEA3 peptide no 13; test: peptide ELISA (coated 20mer)
T25 construct: also called MAGEA3 aa 121-140
T25 peptide: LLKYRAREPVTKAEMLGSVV
Description: as §1, §2

[26] = target: T26, MAGEA3 peptide no 14; test: peptide ELISA (coated 20mer)
T26 construct: also called MAGEA3 aa 131-150
T26 peptide: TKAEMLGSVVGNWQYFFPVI
Description: as §1, §2

[27] = target: T27, MAGEA3 peptide no 2; test: peptide ELISA (coated 20mer)
T27 construct: also called MAGEA3 aa 11-30
T27 peptide: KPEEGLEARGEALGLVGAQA
Description: as §1, §2

[28] = target: T28, MAGEA3 peptide no 29; test: peptide ELISA (coated 20mer)
T28 construct: also called MAGEA3 aa 281-300
T28 peptide: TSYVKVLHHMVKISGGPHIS
Description: as §1, §2

[29] = target: T29, MAGEA3 peptide no 11; test: peptide ELISA (coated 20mer)
T29 construct: also called MAGEA3 aa 101-120
T29 peptide: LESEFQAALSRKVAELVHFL
Description: as §1, §2

B1: 122G3 (antibody, V domains shown)
VH: QVQLVQSGAEVKKPGASVKVSCKASGYTFTNYAIHWVRQAPGQRLEWMGWINAGKGNTKYSQKFQGRVTITRDTSADTTYMELSSLRSEDTAVYFCAQAGLSSGLYRDYWGQGTPVTVSS
VL: EIVMTQSPATLSVSPGERATLSCRASQSVSSDLAWYQQKRGQAPRLLIYGASTRATGIPARFSGSGSGTEFTLTISSLQSEDFAVYWCQQYNDWPLTFGGGTKVEIN
notes: Patient-derived human antibody made recombinantly; also called human monoclonal antibody 122G3
For B1, the binding result [1] was “no binding”, the EC50 [2] was 0.023 nM and the “EC50 (read off the curve)” value [2] was about 0.02 nM. B1: binds [3]; binds [4]; binds [5]. B1: no binding (tested: 1 µg/ml) [6]; no binding (tested: 1 µg/ml) [7]; no binding (tested: 1 µg/ml) [8]. B1: no binding (tested: 1 µg/ml) [9]; no binding (tested: 1 µg/ml) [10]; no binding (tested: 1 µg/ml) [11]. B1: no binding (tested: 1 µg/ml) [12]; no binding (tested: 1 µg/ml) [13]; no binding (tested: 1 µg/ml) [14]. B1: no binding (tested: 1 µg/ml) [15]; no binding (tested: 1 µg/ml) [16]; no binding (tested: 1 µg/ml) [17]. B1: no binding (tested: 1 µg/ml) [18]; no binding (tested: 1 µg/ml) [19]; no binding (tested: 1 µg/ml) [20]. B1: no binding (tested: 1 µg/ml) [21]; no binding (tested: 1 µg/ml) [22]; no binding (tested: 1 µg/ml) [23]. B1: no binding (tested: 1 µg/ml) [24]; no binding (tested: 1 µg/ml) [25]; no binding (tested: 1 µg/ml) [26]. B1: no binding (tested: 1 µg/ml) [27]; no binding (tested: 1 µg/ml) [28]; no binding (tested: 1 µg/ml) [29].
